Reference: paper PMC10248533 (The Journal of Biological Chemistry, 2023)

Molecular target: the molecule itself
Assay: native MS; 50 μM protein exchanged into 200 mM ammonium acetate pH 7.4; nano electrospray, Q Exactive UHMR

B1: AtGet3dΔ1–57 from His8-SUMO-GSx2-AtGet3dΔ1–57 (native mass spectrometry sample) (natural protein, Arabidopsis thaliana, UniProt Q6DYE4 58-455, looked up)
chain: TKFVTFLGKGGSGKTTAAVFAAQHYALAGLSTCLVIHNQDPSAEFLLGSKIGTSPTLINDNLSVIRLETTKMLLEPLKQLKQADARLNMTQGVLEGVVGEELGVLPGMDSIFSMLELERLVGFFRQATRKNHKGKPFDVIIYDGISTEETLRMIGLSSKTRLYAKYLRSLAEKTDLGRLTSPSIMRFVDESMNINSNKSPFDGMTSPAMWDTLERFLETGASAWRDPERFRSFLVMDPNNPMSVKAALRYWGCTVQAGSHVSGAFAISSSHLTSQIPKADFVPLPFASASVPFTITGLDWDKILLDQANSSIRELLSETVSHGTSLTQTVMFDTAKKLVTLFMPGFEKSEIKLYQYRGGSELLIEAGDQRRVIHLPSQIQGKVGGAKFVDRSLIVTMR
notes: Get3d, Arabidopsis thaliana, UniProt Q6DYE4, without the first 57 amino acids (chloroplast transit peptide); Dialysed with Ulp1 after Ni-NTA; the GSx2 linker between SUMO and AtGet3d probably stays on the N-terminus after cleavage (surmised); Copurifies with small molecules of about 750 Da; source: E. coli NiCo21(DE3), purified (Ni-NTA, Ulp1 digestion, Superdex 200 SEC); not shown: His8, …
  stoichiometry N: 2
